{"source": "paper PMC7114298", "molecular_target": "MERS-CoV PLpro-[change] (wild type) (MERS-CoV) (UniProt K9N7C7)", "data": [{"substance": "Ub-AMC (from UniProt P0CG48 1-76) (natural protein)", "values": [{"measurement": "Km of Ub-AMC hydrolysis (steady-state kinetics, 25 °C)", "result": 16.6, "unit": "µM"}]}]}
